In the supplement of paper PMC10567573:

B1: KCNG1 (parent)
chain: AVNLSVSTLPSLREEEEQVRAHAP

Variants of: B1
Assay: protein stability index of a GFP-peptide fusion (GPS, HEK-293T) (PSI 1-6); higher = more stable
Conditions: c terminus: a fixed tail appended
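Further: lentivirally expressed fusions sorted by FACS into six bins by GFP to DsRed ratio, PSI derived from sequencing read proportions per bin multiplied by bin number.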

Variant	protein stability index
AVNLSVSVLPSLREEEEQVRAHAP	4.45
AVNLSVSSLPSLREEEEQVRAHAP	4.82
AVNLSVSLLPSLREEEEQVRAHAP	4.55
AVNLSVSALPSLREEEEQVRAHAP	5.28
AVNLSVSPLPSLREEEEQVRAHAP	5.14
AVNLSVSNLPSLREEEEQVRAHAP	5.14
AVNLSVSQLPSLREEEEQVRAHAP	5.07
AVNLSVSFLPSLREEEEQVRAHAP	3.42
AVNLSVSRLPSLREEEEQVRAHAP	4.94
AVNLSVSWLPSLREEEEQVRAHAP	3.11
AVNLSVSELPSLREEEEQVRAHAP	4.95
AVNLSVSMLPSLREEEEQVRAHAP	4.53
AVNLSVSILPSLREEEEQVRAHAP	4.12
AVNLSVSDLPSLREEEEQVRAHAP	5.36
AVNLSVSKLPSLREEEEQVRAHAP	4.61
AVNLSVSHLPSLREEEEQVRAHAP	4.83
AVNLSVSGLPSLREEEEQVRAHAP	5.15
AVNLSVSCLPSLREEEEQVRAHAP	4.67
AVNLSVSYLPSLREEEEQVRAHAP	4.19
AVNLSVSTLPSLREDEEQVRAHAP	5.05
AVNLSVSTLPSLREHEEQVRAHAP	4.42
AVNLSVSTLPSLREIEEQVRAHAP	3.92
AVNLSVSTLPSLREGEEQVRAHAP	4.59
AVNLSVSTLPSLREAEEQVRAHAP	4.2

Variant	protein stability index
AVNLSVSTLPSLRECEEQVRAHAP	4.23
AVNLSVSTLPSLREFEEQVRAHAP	3.52
AVNLSVSTLPLLREEEEQVRAHAP	4.75
AVNLSVSTLPQLREEEEQVRAHAP	5.01
AVNLSVSTLPHLREEEEQVRAHAP	5.07
AVNLSVSTLPNLREEEEQVRAHAP	4.95
AVNLSVSTLPTLREEEEQVRAHAP	4.84
AVNLSVSTLPWLREEEEQVRAHAP	4.35
AVNLSVSTLPALREEEEQVRAHAP	5.43
AVNLSVSTLPYLREEEEQVRAHAP	4.54
AVNLSVSTLPKLREEEEQVRAHAP	5.13
AVNLSVSTLPCLREEEEQVRAHAP	4.3
AVNLSVSTLPDLREEEEQVRAHAP	5.02
AVNLSVSTLPGLREEEEQVRAHAP	3.95
AVNLSVSTLPELREEEEQVRAHAP	5.14
AVNLSVSTLPFLREEEEQVRAHAP	4.45
AVNLSVSTLPMLREEEEQVRAHAP	4.54
AVNLSVSTLPRLREEEEQVRAHAP	4.88
AVNLSVSTLPPLREEEEQVRAHAP	4.93
AVNLSVSTLPILREEEEQVRAHAP	4.79
AVNLSVSTLPVLREEEEQVRAHAP	4.83
AVNLVVSTLPSLREEEEQVRAHAP	4.1
AVNLLVSTLPSLREEEEQVRAHAP	3.82
AVNLNVSTLPSLREEEEQVRAHAP	4.03

Variant	protein stability index
AVNLMVSTLPSLREEEEQVRAHAP	4.49
AVNLRVSTLPSLREEEEQVRAHAP	3.29
AVNLYVSTLPSLREEEEQVRAHAP	4.59
AVNLTVSTLPSLREEEEQVRAHAP	4.59
AVNLQVSTLPSLREEEEQVRAHAP	4.2
AVNLWVSTLPSLREEEEQVRAHAP	3.31
AVNLPVSTLPSLREEEEQVRAHAP	5.36
AVNLSVFTLPSLREEEEQVRAHAP	4.11
AVNLSVQTLPSLREEEEQVRAHAP	4.91
AVNLSVPTLPSLREEEEQVRAHAP	5.09
AVNLSVVTLPSLREEEEQVRAHAP	4.71
AVNLSVHTLPSLREEEEQVRAHAP	5.03
AVNLSVKTLPSLREEEEQVRAHAP	4.94
AVNLSVATLPSLREEEEQVRAHAP	4.75
AVNLSVITLPSLREEEEQVRAHAP	3.67
AVNLSVDTLPSLREEEEQVRAHAP	4.8
AVNLSVGTLPSLREEEEQVRAHAP	5.18
AVNLSVETLPSLREEEEQVRAHAP	4.47
AVNLSVLTLPSLREEEEQVRAHAP	3.62
AVNLSVWTLPSLREEEEQVRAHAP	3.68
AVNLSVMTLPSLREEEEQVRAHAP	4.53
AVNLSVNTLPSLREEEEQVRAHAP	5.02
AVNLSVTTLPSLREEEEQVRAHAP	4.95
AVNLSVYTLPSLREEEEQVRAHAP	4.19

Variant	protein stability index
AVNLSVCTLPSLREEEEQVRAHAP	4.41
AVNLSVRTLPSLREEEEQVRAHAP	4.93
AVNLSVSTLPSLNEEEEQVRAHAP	5.3
AVNLSVSTLPSLCEEEEQVRAHAP	4.99
AVNLSVSTLPSLDEEEEQVRAHAP	5.15
AVNLSVSTLPSLSEEEEQVRAHAP	5.2
AVNLSVSTLPSLYEEEEQVRAHAP	4.67
AVNLSVSTLPSLGEEEEQVRAHAP	4.55
AVNLSVSTLPSLKEEEEQVRAHAP	4.85
AVNLSVSTLPSLPEEEEQVRAHAP	5.67
AVNLSVSTLPSLLEEEEQVRAHAP	4.77
AVNLSVSTLPSLIEEEEQVRAHAP	4.68
AVNLSVSTLPSLFEEEEQVRAHAP	4.78
AVNLSVSTLPSLQEEEEQVRAHAP	4.91
AVNLSVSTLPSLMEEEEQVRAHAP	5.03
AVNLSVSTLPSLHEEEEQVRAHAP	4.99
AVNLSVSTLPSLAEEEEQVRAHAP	5
AVNLSVSTLPSLWEEEEQVRAHAP	4.77
AVNLSVSTLPSLEEEEEQVRAHAP	5.25
AVNLSVSTLPSLVEEEEQVRAHAP	4.81
AVNLSVSTLPSLTEEEEQVRAHAP	5.25
AVNLSVSTLNSLREEEEQVRAHAP	4.7
AVNLSVSTLHSLREEEEQVRAHAP	4.63
AVNLSVSTLDSLREEEEQVRAHAP	5.06

Variant	protein stability index
AVNLSVSTLLSLREEEEQVRAHAP	4.06
AVNLSVSTLFSLREEEEQVRAHAP	3.5
AVNLSVSTLMSLREEEEQVRAHAP	4.28
AVNLSVSTLTSLREEEEQVRAHAP	4.49
AVNLSVSTLRSLREEEEQVRAHAP	4.29
AVNLSVSTLISLREEEEQVRAHAP	3.67
AVNLSVSTLKSLREEEEQVRAHAP	4.74
AVNLSVSTLYSLREEEEQVRAHAP	4.03
AVNLSVSTLASLREEEEQVRAHAP	4.59
AVNLSVSTLQSLREEEEQVRAHAP	5.05
AVNLSVSTLWSLREEEEQVRAHAP	4.05
AVNLSVSTLVSLREEEEQVRAHAP	4.61
AVNLSVSTLESLREEEEQVRAHAP	5.04
AVNLSVSTLGSLREEEEQVRAHAP	4.71
AVNLSVSTLSSLREEEEQVRAHAP	4.62
AVNLSVSTLCSLREEEEQVRAHAP	4.35
AVNLSVSTLPSLRMEEEQVRAHAP	4.11
AVNLSVSTLPSLRREEEQVRAHAP	4.24
AVNLSVSTLPSLRCEEEQVRAHAP	4.16
AVNLSVSTLPSLRLEEEQVRAHAP	4.51
AVNLSVSTLPSLRWEEEQVRAHAP	3.9
AVNLSVSTLPSLRAEEEQVRAHAP	4.39
AVNLSVSTLPSLRSEEEQVRAHAP	4.98
AVNLSVSTLPSLRKEEEQVRAHAP	4.3

Variant	protein stability index
AVNLSVSTLPSLRVEEEQVRAHAP	4.39
AVNLSVSTLPSLRIEEEQVRAHAP	4.37
AVNLSVSTLPSLRQEEEQVRAHAP	4.87
AVNLSVSTLPSLRGEEEQVRAHAP	4.56
AVNLSVSTLPSLRNEEEQVRAHAP	4.46
AVNLSVSTLPSLRYEEEQVRAHAP	4.34
AVNLSVSTLPSLRPEEEQVRAHAP	4.8
AVNLSVSTLPSLRHEEEQVRAHAP	4.56
AVNLSVSTLPSLRDEEEQVRAHAP	4.96
AVNLSVSTLPSLRTEEEQVRAHAP	4.54
AVNLSVSTLPSLRFEEEQVRAHAP	3.56
AVNLSLSTLPSLREEEEQVRAHAP	4.69
AVNLSTSTLPSLREEEEQVRAHAP	5.08
AVNLSKSTLPSLREEEEQVRAHAP	5.01
AVNLSFSTLPSLREEEEQVRAHAP	4.59
AVNLSQSTLPSLREEEEQVRAHAP	5.24
AVNLSPSTLPSLREEEEQVRAHAP	5.45
AVNLSCSTLPSLREEEEQVRAHAP	4.75
AVNLSESTLPSLREEEEQVRAHAP	5.58
AVNLSMSTLPSLREEEEQVRAHAP	4.98
AVNLSISTLPSLREEEEQVRAHAP	5.08
AVNLSRSTLPSLREEEEQVRAHAP	5.02
AVNLSSSTLPSLREEEEQVRAHAP	5.18
AVNLSHSTLPSLREEEEQVRAHAP	5.3

Variant	protein stability index
AVNLSNSTLPSLREEEEQVRAHAP	5.18
AVNLSDSTLPSLREEEEQVRAHAP	5.34
AVNLSYSTLPSLREEEEQVRAHAP	4.69
AVNLSWSTLPSLREEEEQVRAHAP	4.53
AVNLSGSTLPSLREEEEQVRAHAP	4.8
AVNLSASTLPSLREEEEQVRAHAP	5.14
AVNLSVSTTPSLREEEEQVRAHAP	5.08
AVNLSVSTPPSLREEEEQVRAHAP	5.26
AVNLSVSTIPSLREEEEQVRAHAP	4.14
AVNLSVSTYPSLREEEEQVRAHAP	4.47
AVNLSVSTFPSLREEEEQVRAHAP	5.08
AVNLSVSTEPSLREEEEQVRAHAP	4.67
AVNLSVSTKPSLREEEEQVRAHAP	5.19
AVNLSVSTNPSLREEEEQVRAHAP	5.42
AVNLSVSTMPSLREEEEQVRAHAP	4.63
AVNLSVSTWPSLREEEEQVRAHAP	3.81
AVNLSVSTCPSLREEEEQVRAHAP	4.66
AVNLSVSTSPSLREEEEQVRAHAP	5.09
AVNLSVSTQPSLREEEEQVRAHAP	4.88
AVNLSVSTRPSLREEEEQVRAHAP	5.28
AVNLSVSTHPSLREEEEQVRAHAP	4.81
AVNLSVSTDPSLREEEEQVRAHAP	5.49
AVNLSVSTVPSLREEEEQVRAHAP	4.73
AVNLSVSTAPSLREEEEQVRAHAP	5.36

Variant	protein stability index
AVNLSVSTGPSLREEEEQVRAHAP	4.83
AVNLSVSTLPSIREEEEQVRAHAP	4.79
AVNLSVSTLPSTREEEEQVRAHAP	5.38
AVNLSVSTLPSYREEEEQVRAHAP	4.77
AVNLSVSTLPSMREEEEQVRAHAP	4.88
AVNLSVSTLPSWREEEEQVRAHAP	4.13
AVNLSVSTLPSKREEEEQVRAHAP	4.67
AVNLSVSTLPSHREEEEQVRAHAP	5.17
AVNLSVSTLPSFREEEEQVRAHAP	4.59
AVNLSVSTLPSCREEEEQVRAHAP	4.42
AVNLSVSTLPSRREEEEQVRAHAP	5.35
AVNLSVSTLPSEREEEEQVRAHAP	5.62
AVNLSVSTLPSAREEEEQVRAHAP	5
AVNLSVSTLPSPREEEEQVRAHAP	5.13
AVNLSVSTLPSSREEEEQVRAHAP	5.33
AVNLSVSTLPSNREEEEQVRAHAP	5.11
AVNLSVSTLPSGREEEEQVRAHAP	5.21
AVNLSVSTLPSVREEEEQVRAHAP	4.81
AVNLSVSTLPSQREEEEQVRAHAP	5.19
AVNLSVSTLPSDREEEEQVRAHAP	5.41
